{
  "source": "paper doi:10.1101/2025.06.08.658476",
  "key": {"[1]": {"target": "TycB1-His6, TycB1[COM^A-C-A-PCP] (construct 17), holo-form"}, "[2]": {"target": "TycB1(S5Bpa)-His6, TycB1[COM^A-C-A-PCP] with p-benzoylphenylalanine at Ser5 (construct 25), holo-form", "experiment": "cross-linking"}},
  "data": [
    {"substance": "SBP-TycA ΔV1059 to K1069, seam and lid deletion mutant (construct 19), holo-form (enzyme)", "values": [
      {"measurement": "D-Phe-L-Pro-DKP production with TycB1, normalised to wild-type TycA", "setting": "[1]", "result": 9, "unit": "%"},
      {"measurement": "L-crosslink intensity relative to WT TycA", "setting": "[2]", "result": 38, "unit": "%"},
      {"measurement": "T-crosslink intensity relative to WT TycA", "setting": "[2]", "result": 5, "unit": "%"}
    ]},
    {"substance": "SBP-TycA P1063A, mutation in the lid (construct 24), holo-form (enzyme)", "values": [
      {"measurement": "T-crosslink intensity relative to WT TycA", "setting": "[2]", "result": 46, "unit": "%"}
    ]},
    {"substance": "SBP-TycA with the single V1059 in the seam region deleted (construct 23), holo-form (enzyme)", "values": [
      {"measurement": "T-crosslink intensity relative to WT TycA", "setting": "[2]", "result": 33, "unit": "%"}
    ]}
  ]
}
